# Data reported in paper PMC4513230 (2015).
# B1: eIF2∙GTP∙Met-tRNAi ternary complex (TC), wild-type eIF2 (complex)
# chain 1: MSTSHCRFYENKYPEIDDIVMVNVQQIAEMGAYVKLLEYDNIEGMILLSELSRRRIRSIQKLIRVGKNDVAVVLRVDKEKGYIDLSKRRVSSEDIIKCEEKYQKSKTVHSILRYCAEKFQIPLEELYKTIAWPLSRKFGHAYEAFKLSIIDETVWEGIEPPSKDVLDELKNYISKRLTPQAVKIRADVEVSCFSYEGIDAIKDALKSAEDMSTEQMQVKVKLVAAPLYVLTTQALDKQKGIEQLESAIEKITEVITKYGGVCNITMPPKAVTATEDAELQALLESKELDNRSDSEDDEDESDDE
# chain 2: MSSDLAAELGFDPALKKKKKTKKVIPDDFDAAVNGKENGSGDDLFAGLKKKKKKSKSVSADAEAEKEPTDDIAEALGELSLKKKKKKTKDSSVDAFEKELAKAGLDNVDAESKEGTPSANSSIQQEVGLPYSELLSRFFNILRTNNPELAGDRSGPKFRIPPPVCLRDGKKTIFSNIQDIAEKLHRSPEHLIQYLFAELGTSGSVDGQKRLVIKGKFQSKQMENVLRRYILEYVTCKTCKSINTELKREQSNRLFFMVCKSCGSTRSVSSIKTGFQATVGKRRRM
# chain 3: MSDLQDQEPSIIINGNLEPVGEPDIVEETEVVAQETQETQDADKPKKKVAFTGLEEDGETEEEKRKREFEEGGGLPEQPLNPDFSKLNPLSAEIINRQATINIGTIGHVAHGKSTVVRAISGVQTVRFKDELERNITIKLGYANAKIYKCQEPTCPEPDCYRSFKSDKEISPKCQRPGCPGRYKLVRHVSFVDCPGHDILMSTMLSGAAVMDAALLLIAGNESCPQPQTSEHLAAIEIMKLKHVIILQNKVDLMREESALEHQKSILKFIRGTIADGAPIVPISAQLKYNIDAVNEFIVKTIPVPPRDFMISPRLIVIRSFDVNKPGAEIEDLKGGVAGGSILNGVFKLGDEIEIRPGIVTKDDKGKIQCKPIFSNIVSLFAEQNDLKFAVPGGLIGVGTKVDPTLCRADRLVGQVVGAKGHLPNIYTDIEINYFLLRRLLGVKTDGQKQAKVRKLEPNEVLMVNIGSTATGARVVAVKADMARLQLTSPACTEINEKIALSRRIEKHWRLIGWATIKKGTTLEPIA
# Assays:
# [1] = tested on: 40S ribosomal subunit, Rps5-E144R;eIF1;eIF1A;eIF2 WT; test: EMSA kinetics (Kd = koff/kon); details: methionylated; T7 transcript; 30 mM Hepes-KOH pH 7.4, 100 mM KOAc, 3 mM Mg(OAc)2, 2 mM DTT, 26°C; 1 nM [35S]-Met-tRNAi, 200-250 nM eIF2, 1 uM eIF1 and eIF1A, 100 uM GDPNP (Kd assays), mRNA …
# [2] = tested on: 40S ribosomal subunit, Rps5-R148E;eIF1;eIF1A;eIF2 with eIF2beta-S264Y (SUI3-2); test: EMSA kinetics (dissociation); details: methionylated; T7 transcript; 30 mM Hepes-KOH pH 7.4, 100 mM KOAc, 3 mM Mg(OAc)2, 2 mM DTT, 26°C; 1 nM [35S]-Met-tRNAi, 200-250 nM eIF2, 1 uM eIF1 and eIF1A, 100 uM GDPNP (Kd assays), mRNA …
# [3] = tested on: 40S ribosomal subunit, WT Rps5;eIF1;eIF1A;eIF2 with eIF2beta-S264Y (SUI3-2); test: EMSA kinetics (dissociation); details: methionylated; T7 transcript; 30 mM Hepes-KOH pH 7.4, 100 mM KOAc, 3 mM Mg(OAc)2, 2 mM DTT, 26°C; 1 nM [35S]-Met-tRNAi, 200-250 nM eIF2, 1 uM eIF1 and eIF1A, 100 uM GDPNP (Kd assays), mRNA …
# [4] = tested on: 40S ribosomal subunit, Rps5-R148E;eIF1;eIF1A;eIF2 WT; test: EMSA kinetics (dissociation); details: methionylated; T7 transcript; 30 mM Hepes-KOH pH 7.4, 100 mM KOAc, 3 mM Mg(OAc)2, 2 mM DTT, 26°C; 1 nM [35S]-Met-tRNAi, 200-250 nM eIF2, 1 uM eIF1 and eIF1A, 100 uM GDPNP (Kd assays), mRNA …
# [5] = tested on: 40S ribosomal subunit, Rps5-E144R;eIF1;eIF1A;eIF2 WT; test: EMSA (native gel); details: methionylated; T7 transcript; 30 mM Hepes-KOH pH 7.4, 100 mM KOAc, 3 mM Mg(OAc)2, 2 mM DTT, 26°C; 1 nM [35S]-Met-tRNAi, 200-250 nM eIF2, 1 uM eIF1 and eIF1A, 100 uM GDPNP (Kd assays), mRNA …
# [6] = tested on: 40S ribosomal subunit, Rps5-R148E;eIF1;eIF1A;eIF2 WT; test: EMSA (native gel); details: methionylated; T7 transcript; 30 mM Hepes-KOH pH 7.4, 100 mM KOAc, 3 mM Mg(OAc)2, 2 mM DTT, 26°C; 1 nM [35S]-Met-tRNAi, 200-250 nM eIF2, 1 uM eIF1 and eIF1A, 100 uM GDPNP (Kd assays), mRNA …
# [7] = tested on: 40S ribosomal subunit, WT Rps5;eIF1;eIF1A;eIF2 WT; test: EMSA (native gel); details: methionylated; T7 transcript; 30 mM Hepes-KOH pH 7.4, 100 mM KOAc, 3 mM Mg(OAc)2, 2 mM DTT, 26°C; 1 nM [35S]-Met-tRNAi, 200-250 nM eIF2, 1 uM eIF1 and eIF1A, 100 uM GDPNP (Kd assays), mRNA …
# [8] = molecular target: 40S·eIF1·eIF1A complex assembled with Rps5-R148E mutant 40S subunits (yeast (S. cerevisiae), UniProt P26783 1-225; P32911 1-108; P38912 1-153, R148E)
Molecule,binding signal (fold lower affinity than WT 40S) [1],binding signal (fold higher koff than WT 40S) [2],binding signal (fold lower koff than with WT eIF2) [3],binding signal (fold higher koff than WT 40S) [4],Kd [5] [nM],Kd [6] [nM],Kd [7] [nM],Kd [8] [nM]
initiator Met-tRNAi,40,4,3,2,< 1,< 1,< 1,
B1,,,,,,,,101
